Assay results: patent publication US20250115669A1, “FGFR1/KLB Targeting Agonistic Antigen-Binding Proteins and Conjugates Thereof with GLP-1R Agonistic Peptides” (SANOFI, priority 2020, published 2025)
Positions count from the first letter of the chain named. Names may count otherwise.

B1: Ab0370: IgG4 PE; 16H7 VL (Y48del, W90H); 16H7 VH (M34V, H52W, I83T, D109E) (antibody)
VH: QVTLKESGPVLVKPTETLTLTCTVSGFSLNNARVGVSWIRQPPGKALEWLAWIFSNDEKSYSTSLKSRLTISKDTSKSQVVLTMTNMDPVDTATYYCARSVVTGGYYYEGMDVWGQGTTVTVSS
light: SYVLTQPPSVSVAPGQTARITCGGNNIGSESVHWYQQKPGQAPVLVVDDSDRPSGIPERFSGSNSGNTATLTISRVEAGDEADYYCQVHDGNSDHVVFGGGTKLTVLGQPKANPTVTLFPPSSEELQANKATLVCLISDFYPGAVTVAWKADGSPVKAGVETTKPSKQSNNKYAASSYLSLTPEQWKSHRSYSCQVTHEGSTVEKTVAPTECS
B2: Ab0318: IgG4 PE; 16H7 VL (N25S, D50E, D91T, N93E); 16H7 VH (M34V, I83T, D109E) (antibody)
VH: B1 VH with W52H
light: SYVLTQPPSVSVAPGQTARITCGGSNIGSESVHWYQQKPGQAPVLVVYDESDRPSGIPERFSGSNSGNTATLTISRVEAGDEADYYCQVWTGESDHVVFGGGTKLTVLGQPKANPTVTLFPPSSEELQANKATLVCLISDFYPGAVTVAWKADGSPVKAGVETTKPSKQSNNKYAASSYLSLTPEQWKSHRSYSCQVTHEGSTVEKTVAPTECS
B3: Ab0315: IgG4 PE; 16H7 VL (D49Y, D91T, N93E); 16H7 VH (M34V, I83T, D109E) (antibody)
VH: B1 VH with W52H
light: B2 light with S25N, D49Y, E50D
B4: Ab0316: IgG4 PE; 16H7 VL (N25S, D49Y, D91T, N93E); 16H7 VH (M34V, I83T, D109E) (antibody)
VH: B1 VH with W52H
light: B2 light with D49Y, E50D
B5: Ab0317: IgG4 PE; 16H7 VL (D50E, D91T, N93E); 16H7 VH (M34V, I83T, D109E) (antibody)
VH: B1 VH with W52H
light: B2 light with S25N
B6: Ab0375: IgG4 PE; 16H7 VL (Y48del, D95E, W90F, S1C, S94C); 16H7 VH (M34V, F54W, I83T, D109E) (antibody)
VH: B1 VH with W52H, F54W
light: B1 light with S1C, H89F, S93C, D94E
B7: Ab0314: IgG4 PE; 16H7 VL (N25S, D91T, N93E); 16H7 VH (M34V, I83T, D109E) (antibody)
VH: B1 VH with W52H
light: B2 light with E50D

What was measured:
[1] = biological target: T1, FGFR1c and co-receptor beta-Klotho (KLB) (Homo sapiens, UniProt P11362+Q86Z14); test: Luciferase reporter gene assay (iLite FGF21 Assay Ready Cells), FGF21-like signaling; assay type: cell-based; details: Luciferase gene reporter assay, mean, n=3-7
T1 construct: host or cells: iLite FGF21 Assay Ready Cells (HEK293)
T1 sequence (P11362 22-820 isoform P11362-2 limits assumed, one chain of several): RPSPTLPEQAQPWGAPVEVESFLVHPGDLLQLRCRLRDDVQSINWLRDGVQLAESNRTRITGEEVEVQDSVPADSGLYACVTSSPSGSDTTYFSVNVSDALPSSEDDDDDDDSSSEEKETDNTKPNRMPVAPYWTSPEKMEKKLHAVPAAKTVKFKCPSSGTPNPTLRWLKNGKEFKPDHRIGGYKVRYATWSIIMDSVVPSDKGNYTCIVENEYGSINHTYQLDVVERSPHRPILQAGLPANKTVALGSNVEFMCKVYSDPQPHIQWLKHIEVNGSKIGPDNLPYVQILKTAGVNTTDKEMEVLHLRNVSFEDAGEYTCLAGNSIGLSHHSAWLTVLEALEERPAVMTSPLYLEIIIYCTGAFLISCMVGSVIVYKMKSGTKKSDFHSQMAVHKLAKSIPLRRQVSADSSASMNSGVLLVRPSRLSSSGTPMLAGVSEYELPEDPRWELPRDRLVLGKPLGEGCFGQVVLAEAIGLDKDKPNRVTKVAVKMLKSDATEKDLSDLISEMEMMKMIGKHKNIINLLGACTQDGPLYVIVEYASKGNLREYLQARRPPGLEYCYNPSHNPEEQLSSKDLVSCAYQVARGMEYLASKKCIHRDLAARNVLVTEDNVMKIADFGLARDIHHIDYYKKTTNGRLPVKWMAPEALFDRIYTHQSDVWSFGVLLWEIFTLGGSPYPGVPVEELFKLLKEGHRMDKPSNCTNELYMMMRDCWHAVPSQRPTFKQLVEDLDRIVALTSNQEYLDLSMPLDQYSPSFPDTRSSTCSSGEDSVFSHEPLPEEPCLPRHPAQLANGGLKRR

human beta-Klotho = biological target: T2, human beta-Klotho (Homo sapiens, UniProt Q86Z14); test: SPR off-rate screening of antibody mutants (human beta-Klotho captured by anti-His antibody); assay type: binding; details: mean, n=3
T2 sequence (Q86Z14 1-1044): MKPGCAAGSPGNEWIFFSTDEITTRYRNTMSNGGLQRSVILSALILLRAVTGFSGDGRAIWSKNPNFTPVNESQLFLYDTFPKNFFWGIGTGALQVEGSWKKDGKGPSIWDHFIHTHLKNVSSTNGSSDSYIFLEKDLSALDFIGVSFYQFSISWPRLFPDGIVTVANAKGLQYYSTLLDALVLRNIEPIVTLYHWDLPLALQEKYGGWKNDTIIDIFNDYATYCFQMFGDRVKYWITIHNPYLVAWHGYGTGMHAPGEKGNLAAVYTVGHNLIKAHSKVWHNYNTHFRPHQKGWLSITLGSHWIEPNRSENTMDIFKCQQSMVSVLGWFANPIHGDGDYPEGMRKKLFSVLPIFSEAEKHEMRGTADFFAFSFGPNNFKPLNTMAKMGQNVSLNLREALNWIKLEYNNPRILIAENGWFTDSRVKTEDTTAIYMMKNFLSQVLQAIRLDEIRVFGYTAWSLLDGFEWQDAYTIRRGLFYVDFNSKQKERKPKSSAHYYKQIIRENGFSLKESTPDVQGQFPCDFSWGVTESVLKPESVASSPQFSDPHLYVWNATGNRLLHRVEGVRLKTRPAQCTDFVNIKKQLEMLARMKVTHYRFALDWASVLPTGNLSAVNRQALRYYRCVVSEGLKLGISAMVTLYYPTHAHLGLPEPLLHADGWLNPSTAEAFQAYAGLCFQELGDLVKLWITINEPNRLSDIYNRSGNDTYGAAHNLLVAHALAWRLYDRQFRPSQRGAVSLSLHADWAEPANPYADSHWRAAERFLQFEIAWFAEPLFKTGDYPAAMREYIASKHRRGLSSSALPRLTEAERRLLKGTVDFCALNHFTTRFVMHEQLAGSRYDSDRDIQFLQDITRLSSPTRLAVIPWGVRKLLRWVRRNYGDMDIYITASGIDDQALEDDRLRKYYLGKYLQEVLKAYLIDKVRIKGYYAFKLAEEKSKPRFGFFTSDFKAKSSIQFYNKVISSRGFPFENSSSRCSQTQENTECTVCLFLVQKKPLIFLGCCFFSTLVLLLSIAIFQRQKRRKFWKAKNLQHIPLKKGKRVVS
In short: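 Off-rates (kd) were obtained by single exponential fitting of dissociation curves. Mutant antibodies at 50 nmol/L flowed over beta-Klotho held by an immobilized anti-His antibody, with 240 sec association and 300 sec dissociation.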

[2] = In vivo PK in transgenic humanized FcRn mice (Tg32); details: 0.3 mg/kg single IV, plasma, noncompartmental analysis
Method: In vivo PK studies were conducted in transgenic humanized FcRn mice (Tg32). For these studies, no GLP compliance was claimed.

Row | Molecule | HEK293 hFGFR1c + KLB (iLite) Emax [1] | koff human KLB (human beta-Klotho) | t½ [2]
1 | B1 | 490.05% |  | 
2 | B2 |  | invalid fit | 
3 | B3 |  | invalid fit | 
4 | B4 |  | invalid fit | 
5 | B5 |  | invalid fit | 
6 | B6 |  | no binding | 
7 | B7 |  | 0.000402 s⁻¹ | 18 days
